Residue numbers refer to the chain shown, from its start. Numbers in names are those of the source.
B1: auto-MARylated PARP10 catalytic domain (domain or fragment, UniProt Q53GL7 819-1007, looked up)
chain: NLERLAENTGEFQEVVRAFYDTLDAARSSIRVVRVERVSHPLLQQQYELYRERLLQRCERRPVEQVLYHGTTAPAVPDICAHGFNRSFCGRNATVYGKGVYFARRASLSVQDRYSPPNADGHKAVFVARVLTGDYGQGRRGLRAPPLRGPGHVLLRYDSAVDCICQPSIFVIFHDTQALPTHLITCEHV
modifications: auto-mono-ADP-ribosylated (MARylated) on glutamic and aspartic acid, serine, lysine and arginine side chains; sites not given
notes: PARP10 catalytic domain, construct PARP10 819-1007; also called PARP10 819-1007; source: auto-modified with NAD+
B2: Af1521-c001, wild type Af1521 fused to GFP (other, Archaeoglobus fulgidus, UniProt O28751 1-192, looked up)
chain: MEVLFEAKVGDITLKLAQGDITQYPAKAIVNAANKRLEHGGGVAYAIAKACAGDAGLYTEISKKAMREQFGRDYIDHGEVVVTPAMNLEERGIKYVFHTVGPICSGMWSEELKEKLYKAFLGPLEKAEEMGVESIAFPAVSAGIYGCDLEKVVETFLEAVKNFKGSAVKEVALVIYDRKSAEVALKVFERSL
notes: Archaeoglobus fulgidus macrodomain protein Af1521, full length, wild type; pNIC28 derived vector; also called Af1521-GFP; wild type Af1521-GFP fusion; source: E. coli BL21(DE3)T1R pRARE2, purified (IMAC, SEC); not shown: eGFP, C-terminal, kept
B3: MacroGreen (Af1521-c007), Af1521 K35E,G42E,I144R,Y145R fused to GFP (other, Archaeoglobus fulgidus, UniProt O28751 1-192, looked up)
chain: B2 chain with K35E, G42E, I144R, Y145R
notes: Archaeoglobus fulgidus macrodomain protein Af1521, full length, with K35E, G42E, I144R, Y145R; Synthetic codon-optimised cDNA in a pNIC28 derived vector; also called GFP-fusion quadruple mutant; source: E. coli BL21(DE3)T1R pRARE2, purified (IMAC, SEC); not shown: eGFP, C-terminal, kept

Experiments:
[1] = biological target: B3; test: SPR; MacroGreen covalently immobilised, auto-MARylated PARP10 catalytic domain flowed over; apparent KD from the kinetics of binding and unbinding; settings: both partners purified
[2] = biological target: T1, PARylated PARP1 (auto-modified catalytic domain construct) (UniProt P09874 662-1011, auto-poly-ADP-ribosylated (PARylated) predominantly on carboxylic acid side chains; sites not given); test: far-Western, overlay or dot blot; overlay in multiwell plates: MAR- or PARylated protein adsorbed to protein binding 96-well plates (MaxiSorp), blocked with 1% BSA, overlaid with the macrodomain-GFP fusion (1 µM in Fig. 2) in TBST pH 7.5 for 5 min at room temperature, washed, GFP fluorescence read; settings: both partners purified
T1 construct: PARP1 catalytic domain construct, PARP1 662-1011; also called PARP1 662-1011; source: auto-modified with 1 mM NAD+
T1 sequence (P09874 662-1011): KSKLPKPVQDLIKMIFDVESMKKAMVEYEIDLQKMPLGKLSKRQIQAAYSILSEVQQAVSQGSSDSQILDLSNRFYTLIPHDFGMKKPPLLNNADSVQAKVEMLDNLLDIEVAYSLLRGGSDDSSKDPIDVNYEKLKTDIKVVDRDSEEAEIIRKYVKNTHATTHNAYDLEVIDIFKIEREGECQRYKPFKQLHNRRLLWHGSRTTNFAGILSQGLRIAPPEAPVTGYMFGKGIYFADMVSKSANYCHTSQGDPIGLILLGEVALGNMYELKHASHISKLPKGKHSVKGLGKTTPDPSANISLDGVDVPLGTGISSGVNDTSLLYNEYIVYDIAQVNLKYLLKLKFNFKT

| Kd [1] | stoichiometry N [1] | binding result [2] | Binder |
| --- | --- | --- | --- |
| 30 nM | 1 | – | B1 |
| – | – | binds | B2 |
| – | – | binds | B3 |

From paper PMC8319303, “MacroGreen, a simple tool for detection of ADP-ribosylated proteins” (Communications Biology, 2021)
